Key:
[1] = molecular target: T1, CD117 (Homo sapiens, UniProt P10721); assay: In vitro stem cell factor (SCF)-dependent cell proliferation assay (neutral vs antagonist); assay type: cell-based; set-up: endogenous in cells; host or cells: CD34+ cells dependent on SCF
Description: Neutral antibodies can be identified using, for example, an in in vitro stem cell factor (SCF)-dependent cell proliferation assay. In an SCF dependent cell proliferation assay, a neutral CD117 antibody will not kill CD34+ cells that are dependent on SCF to divide, as a neutral antibody will not block SCF from binding to CD117 such as to inhibit CD117 activity.

[2] = molecular target: T1, CD117; assay: Bio-layer interferometry (BLI) binding
Description: In certain embodiments, an anti-CD117 antibody, or antigen binding fragment thereof, has a certain dissociation rate which is particularly advantageous when used as a part of a conjugate. For example, an anti-CD117 antibody has, in certain embodiments, an off rate constant (Koff) for human CD117 and/or rhesus CD117 of 1×10^−2 to 1×10^−3, 1×10^−3 to 1×10^−4, […] or 1×10^−7 to 1×10^−8, as measured by bio-layer interferometry (BLI). In some embodiments, the antibody or antigen-binding fragment thereof binds CD117 (e.g., human CD117 and/or rhesus CD117) with a KD of about 100 nM or less, about 90 nM or less, about 80 nM or less, about 70 nM or less, about 60 nM or less, about 50 nM or less, about 40 nM or less, about 30 nM or less, about 20 nM or less, about 10 nM or less, about 8 nM or less, about 6 nM or less, about 4 nM or less, about 2 nM or less, about 1 nM or less as determined by a Bio-Layer Interferometry (BLI) assay.
Thus, in certain embodiments, an anti-CD117 antibody comprises a heavy chain comprising a CDR set (CDR1, CDR2, and CDR3) as set forth in SEQ ID Nos: 245, 246, and 247, and a light chain comprising a CDR set as set forth in SEQ ID Nos: 248, 249, and […], internalizes in cells expressing CD117, and has a koff rate of 5×10^−4 s^−1 or less as measured by BLI.

T1 sequence (P10721 26-976): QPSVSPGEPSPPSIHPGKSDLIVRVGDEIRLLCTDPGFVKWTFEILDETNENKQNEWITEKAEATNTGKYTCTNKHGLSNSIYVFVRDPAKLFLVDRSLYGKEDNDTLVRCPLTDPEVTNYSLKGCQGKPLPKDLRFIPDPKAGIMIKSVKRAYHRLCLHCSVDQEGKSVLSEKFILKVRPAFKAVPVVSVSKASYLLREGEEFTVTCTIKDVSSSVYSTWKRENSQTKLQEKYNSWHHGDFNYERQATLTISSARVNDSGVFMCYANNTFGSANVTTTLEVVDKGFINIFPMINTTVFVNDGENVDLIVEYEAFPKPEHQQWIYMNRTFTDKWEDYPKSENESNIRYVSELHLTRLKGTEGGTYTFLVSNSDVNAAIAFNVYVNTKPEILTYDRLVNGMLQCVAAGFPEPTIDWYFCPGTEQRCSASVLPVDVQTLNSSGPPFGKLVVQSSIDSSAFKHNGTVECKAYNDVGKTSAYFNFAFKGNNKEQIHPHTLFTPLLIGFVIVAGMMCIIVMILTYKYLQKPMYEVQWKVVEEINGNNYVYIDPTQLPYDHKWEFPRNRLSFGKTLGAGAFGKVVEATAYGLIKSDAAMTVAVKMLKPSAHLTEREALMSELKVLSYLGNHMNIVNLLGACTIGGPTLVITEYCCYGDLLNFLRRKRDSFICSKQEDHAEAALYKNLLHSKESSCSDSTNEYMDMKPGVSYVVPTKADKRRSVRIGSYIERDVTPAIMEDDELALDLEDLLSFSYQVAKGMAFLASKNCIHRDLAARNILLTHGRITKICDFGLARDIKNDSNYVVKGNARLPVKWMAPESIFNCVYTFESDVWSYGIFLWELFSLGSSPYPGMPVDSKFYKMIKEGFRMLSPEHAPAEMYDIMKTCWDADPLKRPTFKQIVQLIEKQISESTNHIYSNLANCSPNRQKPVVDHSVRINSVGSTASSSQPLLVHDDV

Molecule | effect on CD117 activity (neutral or antagonist antibody) [1] | binding characteristics over CK6 [2]
Ab61: anti-CD117 antibody, VH SEQ ID NO: 69, VL SEQ ID NO: 70 (antibody, V domains shown) VH: EVQLLESGGGLVQPGGSLRLSCAASGFTFSSYVMIWVRQAPGKGLEWVSSISGDSVTTYYADSVKGRFTISRDNSKNTLYLQMNSLRAEDTAVYYCAKGPPTYHTNYYYMDVWGKGTTVTVSS VL: DIQMTQSPSSVSASVGDRVTITCRASQGISSWLAWYQQKPGKAPKLLIYAASSLQSGVPSRFSGSGSGTDFTLTISSLQPEDFATYYCQQTNSFPYTFGGGTKVEIK | neutral | 
Ab54: anti-CD117 antibody, VH SEQ ID NO: 29, VL SEQ ID NO: 30 (antibody, V domains shown) VH: QVQLVQSGAEVKKPGSSVKVSCKASGGTFSSYAISWVRQAPGQGLEWMGGIIPIFGTANYAQKFQGRVTITADESTSTAYMELSSLRSEDTAVYYCARGGLDTDEFDLWGRGTLVTVSS VL: DIQMTQSPSSLSASVGDRVTITCRASQSINSYLNWYQQKPGKAPKLLIYAASSLQSGVPSRFSGSGSGTDFTLTISSLQPEDFATYYCQQGVSDITFGGGTKVEIK | Antagonist | 
Ab55: anti-CD117 antibody, VH SEQ ID NO: 19, VL SEQ ID NO: 20 (antibody, V domains shown) VH: QVQLVQSGAEVKKPGSSVKVSCKASGGTFRIYAISWVRQAPGQGLEWMGGIIPDFGVANYAQKFQGRVTITADESTSTAYMELSSLRSEDTAVYYCARGGLDTDEFDLWGRGTLVTVSS VL: DIQMTQSPSSLSASVGDRVTITCRASQSINSYLNWYQQKPGKAPKLLIYAASSLQSGVPSRFSGSGSGTDFTLTISSLQPEDFATYYCQQGVSDITFGGGTKVEIK | Antagonist | 
Ab56: anti-CD117 antibody, VH SEQ ID NO: 39, VL SEQ ID NO: 40 (antibody, V domains shown) VH: QVQLVQSGAEVKKPGSSVKVSCKASGGTFSLYAISWVRQAPGQGLEWMGGIIPAFGTANYAQKFQGRVTITADESTSTAYMELSSLRSEDTAVYYCARGGLDTDEFDLWGRGTLVTVSS VL: DIQMTQSPSSLSASVGDRVTITCRASQSINSYLNWYQQKPGKAPKLLIYAASSLQSGVPSRFSGSGSGTDFTLTISSLQPEDFATYYCQQGVSDITFGGGTKVEIK | Antagonist | 
Ab57: anti-CD117 antibody, VH SEQ ID NO: 49, VL SEQ ID NO: 50 (antibody, V domains shown) VH: QVQLVQSGAEVKKPGSSVKVSCKASGGTFSLYAISWVRQAPGQGLEWMGGIIPHFGLANYAQKFQGRVTITADESTSTAYMELSSLRSEDTAVYYCARGGLDTDEFDLWGRGTLVTVSS VL: DIQMTQSPSSLSASVGDRVTITCRASQSINSYLNWYQQKPGKAPKLLIYAASSLQSGVPSRFSGSGSGTDFTLTISSLQPEDFATYYCQQGVSDITFGGGTKVEIK | Antagonist | 
Ab249: human anti-CD117 antibody derived from CK6, VH SEQ ID NO: 238, VL SEQ ID NO: 242 (antibody, V domains shown) VH: EVQLVQSGAEVKKPGESLKISCKGSGYRFTTSWIGWVRQMPGKGLEWMGIIYPGDSDTRYSPSFQGQVTISADKSISTAYLQWSSLKASDTAMYYCARHGLGYNGYEGAFDIWGQGTLVTVSS VL: DIQMTQSPSSLSASVGDRVTITCRASQGIGSALAWYQQKPGKAPKLLIYDASNLETGVPSRFSGSGSGTDFTLTISSLQPEDFATYYCQQLNGYPLTFGQGTRLEIK |  | improved binding characteristics

Source: patent US20210379195A1, “METHODS FOR ALLOGENEIC HEMATOPOIETIC STEM CELL TRANSPLANTATION” (Magenta Therapeutics, Inc., priority 2018, published 2021)
